In the DeepSol protein solubility set:

Experiment: soluble on expression in E. coli; label from the status in PepcDB or PDB records

Sequence | soluble on expression in E. coli
MCGRFVITSAPAAIRQLFGYADQPNFPSRYNIAPTQPVPVVIVDEGARRFRLMRWGLIPSWVKDPRMFSLLINARADTIQDKPAFRNAFRRRRCLVPADGYYEWKAGGSRKQPYFIHPAGGGPIGFAALWETWTGPNGEELDTVAIVTTAARGGLADLHDRVPVTIAPHHFARWLETDETDTEAVMALLGPPGEGEFVWHPVSTAVNRTANDNPQLILPIAAEEVEAPPPAVAKPAPPKRAARPKISADDSGQGSLFLEHHHHHH | soluble
MIRSMTGFGRGRAQADGREFLVEIKTVNHRYCDIYIKLPRQISFLEDKVREVIGKSISRGKVDVFINYEDFSEDSKNILIDEGLAKTYIKSVEYLRDKYGLKDDISVSLIAKFPDILKVEKPEEDEEKIWNLLYEALSHALDSLISMRETEGEGLKNDLLERTDAIEKVVQEISIRAPEVVKEYKCKLENRIKEILEQQVIDENRLAMEVAIFADRCNIDEELVRLESHINQLRQTLNSDSDTPVGRKLDFLIQEMNREINTIGSKANDLSITQNVVEIKSELEKIREQIQNIE | soluble
MQFEHLVQVNDRTLVDLPVLDRLQLWEGLVCRAREPQYFVVGLERFEILVDDGDRLHRRLYLPGLVVEDEVVLKAPDSAHYSIKPSAEVAGGSLDMTIEEPEPGSLFVRFAYCTRYLQPLGDELPYDAFVKQAYIAMDVETIATIRDRFGASAASGS | soluble
MISIIIPAFNEERRIGRTLEKISSTLPNAEIVVVFDGHDNTPEVVKKFPVKLLISESRLGKGGAIKRGINESNFQRVLLLDADFPITEEELDKILSTDADLVIPKRKIVGMPLKRKFLHKGFIIITKILFPSLAKFSDFQAGVKLVNREKVLDILDELIINDFLFDVNLIYGFKRRHYKVKEVEINYIHDESDSKISKKLIKVIILMFLSLIKLRVYYSPFRKILYTKTYLKAQDYILRKLRLEHHHHHH | not soluble
MGSDKIHHHHHHMSLSNMQVFNDYIMPATIKSLDQMIDKFNAGSAGAIVLSSEGMTGDFMRESFFASLAAAQRRVNRKGANGAASATDLSELTGSKVKIAGGFGPVRYEPSQMTWLQRPTQQGVLAASTAFAELLLQDQLNTAIAALVAALSNNAAVTNDVSGSAGMTYGAINSAHAKFGDASGQIVANVMTGTVAHKLIGDNLTNGQRLFTAGNVNVIDILGKAVIVTDAPALYEAGTPNKSKVLGLVPGAATVGNTSDIITNVETTNGKERIETTFQADYSFSLGLKGYGWDEANGGASPTDAEIATGTNWDKVAEFDKMTAGVIAVADADQ | not soluble
EEYSKAELVVREYVASEGREFFISFEIPEYDALVGFVRLRFPKEPFIEVLRDAALIRELHVYGRAVPIGQSSDAFQHRGFGERLLKEAEEIAKEEYDRIAVISGVGVRDYYRKLGYRLRQGYMVKKL | not soluble
MGSDKIHHHHHHMKRENLHQPFEISFSELAESLLKEHEHTFFELVYILSGTGIQWINNNMFPYHDGHLFMITPGDTHSFEIHTTTKFVDIKFNDIYIHSSVFGAENIQRLEFILQHANHQPGCILRNKVDKLLVKPMIEAIIREYINRNLYSKEIITQIINTIIIVVARNIAMFLPEQVDECSEDKSLDILQYIQANIYKTGKIRAKDISQHFGISENYLGRYIKKHTNETMQQYILNYKLKLVENRLLHSQMRICEIVEELGFTDESHLNKFFKKYRGCSPSNFRKNNLK | not soluble
MGSDKIHHHHHHMMKIPKKIHQIYTKGIHDLPEEILVSVGKLKDLNPGWEYFFYDEKSIIGYIHKHYGKEMLNIYLSINPKYGVAKADLFRYLLIYIEGGVYLDIKSSCSIPLDQVIKDDCEILLCSWDNKECGCDRNMGIHKELGFLKCGEYQQWNIISASGSPYIKSAIDEVIHRLKTYKPWIYGVGMKGVLNTTGPVPFSVGIERINKTEFFHHEENYRNIGLKYRNVTEETIRKLNKNHYSKLKDSIVTLEGKDKLYYKLWLLFFYPLQRLKKNIINESKFVIRKMKRISRKTSQ | not soluble
ISDLHPQLQPLAETFLRLCRDQGVDPLLICTWRSSEEQAQLYRRGRDLPGAIVTYARPGESAHNATLHGNPAARAFDVVPLLAGKPICDIDHPHWQVMGR | not soluble
MGSDKIHHHHHHMMGKAALMDAIAGTNRGLLATEAQKQAILAAIANLEDFNPTPRPVEAGNLLDGNWRLLYTTSKALLNLDRLPFCKLGQIYQCIRVETTSVYNIAEIYGLPYLEGLVSVAAKFEPVSGRRVQVKFERSIIGLQRLIEYNSPVTFIQQIEAGKKFAGIDFAIKSDKQQGWLDITYIDNDLRIGRGNEGSVFILSKT | not soluble
MFVPLAMLAGMFSYYETFHETEALQDDLLRQAALYVAPDSKPETLPEGDGDTRIFVQMPQQEDPVVSLPAHLADGLHTLQADGDDDYYRVYIRTTEQGRIAVMQENEYREDLAADAARQSVLPLLAALPLMILLTVWITHKAMRPVRKLSQSLEQRRINDLSALSVDNIPSEIRGFVTAINLLLKRADEDIRHRQRFVADAAHELRTPMTALSLQAERLNNMSLPPDAARQPAVLQQSIRRNKHLLEQLLALARSQSDETPLTKTTFGLQSRFRQVLQELMPLALEKRQDIGVAVGGDVEVSADETEIYTLIKTFADNAVRYTPPEGRIDLGFTDEGKYLAVWVEDNGNGIPESERARVLDPFYRILGTEQQGTGLGLSIADTLAKKYGGHLELTDSRRFGHGLLIRALLDKETLK | not soluble
MLPAWGTSTEATASHAGWDGDDEGDIRAAYTEDEKKENIPPISLTSVSTNGAYPGQKRRRSESVRTLKPECPPEETQRLRQRRRISATDATQSSRTMNVIEDRKPRVNRARKSQDAPSTSTCGFETPVGTKRKSKAADSQKPPKQSKLRKIDEASTSKAVDNSSKDGKKTTKPAVTQSNRRRSGLSLRPVPIETIFSESSGRESSTEDEADVSHQQ | not soluble
MKKKIIIAIVASAITMTHFVGNTYADSKTEVSVTAPYNTNQIAKWLEAHAKPLKTTNPTASLNDLKPLKNMVGSASIVGLGEATHGAHEVFTMKHRIVKYLVSEKGFTNLVLEEGWDRALELDRYVLTGKGNPSQHLTPVFKTKEMLDLLDWIRQYNANPKHKSKVRVIGMDIQSVNENVYNNIIEYIKANNSKLLPRVEEKIKGLIPVTKDMNTFESLTKEEKEKYVLDAKTISALLEENKSYLNGKSKEFAWIKQNARIIEQFTTMLATPPDKPADFYLKHDIAMYENAKWTEEHLGKTIVWGHNGHVSKTNMLSFIYPKVAGQHLAEYYGKRYVSIGTSVYEGQYNVKNSDGEFGPYGTLKSDDPNSYNYIFGQVKKDQFFIDLRKANGVTKTWLNEQHPIFAGITTEGPDIPKTVDISLGKAFDILVQIQKVSPSQVHQLEHHHHHH | soluble
MRKLSKRLLGTVHVATSSTPPGSPFSLVNRQFLLLPTMDKLMGEICREKQIVDRCKMSIDRKEPYDLISMKQQIEISLSKITAMKMRLFHMQNNSETHNSPCSINQQILNTQLLCHGARKVRESLRKDESPNEKVLRETEQTILVLNEKLDLLSNCCSQKESSLTPISVRRSRGGPSKTNNFPVAVSGFLKIRVTGLADLPNNTKHRSGRYASEHFAQLIKKKKSMFGRHGFRRYPNRSSAVNDYIIVIHVGGKEVATMVWNEKKTMVGGDEETIQLFKSRQLDFEIYHTDSRSLCAIGSMQLESLLDEHDAKFPFATFAHRVVNLIPEGTLHFQTTYSDPEQSMEKKLGDTCTDGVSKLAVSMRKSGSVLARGSKTFYSPRTAISLNQFVPLTPSMKSRTRRIDSLDSYRLISEIGVGAFGTVKLGTKDP | not soluble
MGGSHHHHHHGMASALATRQRESSITSCCSTSSCDADDEGVRGTCEDASLCKRFAVSIGYWHDPYIQHFVRLSKERKAPEINRGYFARVHGVSQLIKAFLRKTECHCQIVNLGAGMDTTFWRLKDEDLLPSKYFEVDFPMIVTRKLHSIKCKPPLSSPILELHSEDTLQMDGHILDSKRYAVIGADLRDLSELEEKLKKCNMNTQLPTLLIAECVLVYMTPEQSANLLKWAANSFERAMFINYEQVNMGDRFGQIMIENLRRRQCDLAGVETCKSLESQKERLLSNGWETASAVDMMELYNRLPRAEVSRIESLEFLDEMELLEQLMRHYCLCWATKGGNELGLKEITY | not soluble
